Assay: soluble on expression in E. coli; label from the status in PepcDB or PDB records

Sequence | soluble on expression in E. coli
VAKQRPDGIRAYEDPAGGWGALKALAVALKDQQLVVEGIPTLLKQNQPEGFDCPGCAWPDPKHTSAFEFCENGAKAVTWESTPKRVGPDFFAQHTVTSLWECSDYWLEDQGRLTHPMRYDAQTDKYEPVDWQVAFDDIAAKLDALDDPNQLELYTSGRASNEAAFLFQLFGRQFGTNNFPDCSNMCHEPTSVGLPRSIGIGKGTVTLDDFDKAELIISMGHNPGTNHPRMMTPLRNASRRGVKIIVLNPLKERALERFEAPQAPLEMATTSSTPIASCYFQVKVGGDAAALKGICKALVAADKVARAADLAPLLDHTFIVGHTAGFDALVDDLEGCSWSAIERASGLPRADMERIAADYAASNATIVCYGMGITQHVTGTANVQQIANLLLLKGNIGKPGAGICPLRGHSNVQGDRTVGITERPSEAFLDRLRDVFGFEPPRAFGHSVVDSIAAMRDGRAKAVICLGGNLAMAASDPQACFKGFRRLDLAVHLATKLNRTHLLTSKTTYLFPVLGRTDSDIQASGRQALTVEDSMSMVHASRGFLTPPSDQVRSEVAILAGIAKATLRSKSRVDWDALAGNYDLIRDAIEEVFPDFEAYNDRIRKPGGFQLPNSAAMRIWNTPTGKANFAIFAGLEEDETSTDRDVLRMTSLRAHDQYNTTIYGLNDRYRGVFGRRDVLFLNPKDLARLGFAEGDVVDVATALDYARPDRVVQALTLVSYNLPDGCCASYYPEIQPLVALEFRDPECLTPSYKSIPVKVTAARAPLAADRAVGRDGIVGREPGVETATGPSPVSLID | soluble
GSHMSKDATKEISAPTDAKERSKAIETAMSQIEKAFGKGSIMKLGAESKLDVQVVSTGSLSLDLALGVGGIPRGRITEIYGPESGGKTTLALAIVAQAQKAGGTCAFIDAEHALDPVYARALGVNTDELLVSQPDNGEQALEIMELLVRSGAIDVVVVDSVAALTPRAEIEGDMGDSLPGLQARLMSQALRKLTAILSKTGTAAIFINQVREKIGVMYGNPETTTGGRALKFYASVRLDVRKIGQPTKVGNDAVANTVKIKTVKNKVAAPFKEVELALVYGKGFDQLSDLVGLAADMDIIKKAGSFYSYGDERIGQGKEKTIAYIAERPEMEQEIRDRVMAAIRAGNAGEAPALAPAPAAPEAAEA | soluble
MSVAGLKKQFHKASQLFSEKISGAEGTKLDEEFLNMEKKIDITSKAVAEILSKATEYLQPNPAYRAKLGMLNTVSKLRGQVKATGYPQTEGLLGDCMLKYGKELGEDSAFGNSLVDVGEALKLMAEVKDSLDINVKQTFIDPLQLLQDKDLKEIGHHLRKLEGRRLDYDYKKRRVGKIPEEEIRQAVEKFEESKELAERSMFNFLENDVEQVSQLAVFVEAALDYHRQSTEILQELQSKLELRISLASKVPKREFMPKPVNMSSTDANGVGPSSSSKTPGTDTPSDQPCCRGLYDFEPENEGELGFKEGDIITLTNQIDENWYEGMLRGESGFFPINYVEVIVPLPP | soluble
MSLKVLAITGYKPFELGIFKQDDKALYYIKKAIKNRLIAFLDEGLEWILISGQLGVELWAAEAAYDLQEEYPDLKVAVITPFYEQEKNWKEPNKEQYEAVLAQADYEASLTHRPYESPLQFKQKNQFFIDKSDGLLLLYDPEKEGSPKYMLGTAEKRREQDGYPIYFITMDDLRVTVEEDSYEGHHHHHH | soluble
MYYDVLKTFIAVVEEKNFTKAAEKLMISQPSVSLHIKNLEKEFQTALLNRSPKHFTTTPTGDILYQRAKQMVFLYEQAKAEIYAHHHYVKGELKIAASFTIGEYILPPLLAQLQKLYPELNLDVMIGNTEEVSERVRMLQADIGLIEGHTNENELEIEPFMEDEMCIAAPNQHPLAGRKEISISDLQNEAWVTREKGSGTREYLDHVLSSNGLRPKSMFTISSNQGVKEAVINGMGLSVLSRSVLRKDLIHREISILHINNFSLKRKLSYIHSPLMENTKNKEIFITMLKSNYQSQLLK | soluble
MPAHRSDPTSSVIELNDVVFCWPGASSPTLDIAHLQIARGEHLFVKGPSGCGKSTLLSLLTGINTATQGVVSLLGSDLSRLSASQRDRFRADHIGYIFQQFNLLPYLSVLDNVTLPCHFSALRKQQVDGPLSHKAQSLLERLHLPSALLNKPVTELSIGQQQRVAAARALMGEPQLIIADEPTSALDYDNREAFIALLREEAERVGSTLVFVSHDPTLEKLFERSVHLPTLNRAGGWQ | not soluble
MPQYKLTYFDLRGWAEPARQLFHLSHTPYDDIRIPMADTEGKWEKMRDKTPFGQLPVLNVDGFDIPQSAAICRYLAKKFGYAGKTPEEEAWADAVVDQFKDFSVAFKTLLFATRAGKPEEEILKIRYEIFNPARDVYFILLNRILKKSKSGYLVGDGLTWADLVIADNLHSLEKLRAIDDDDEGHQNLKKYKEKIYGTPDLEDHIATRMDTEV | not soluble
MQAEKLAYYPFTSEASAYVGNLGISLESLLNSRAYRAARARGIERVKEALEGEIKKSPVSGEAQVLSELLSYPFARMLVACVDDQLFTRRYALAEAKAAYTFLRNENPDFLLEFGDDFGISADSQDSYFSMHFTDYIRFSNSLKDPSWKLTNRQLRAGKIKITKEEFSRLLEEAVRERIEQSFPVPEIPPEVSSFCSPYAAEIKDKFEVQKKKFGSTDFGAVKPELFPPCIAYALANVQGGVNLAHSMRFAMTSFLLNVGMSVDEILNLFNISPDFNAEKTLYQIEHIAGATGNTYKPPACDTMRTYGNCVGKDRLCEKISHPLGYYEKKVFIKNKEGEEAQGKEQGKEKDDGKEKENGKESEVKKKKEKLEHHHHHH | soluble
MGSDKIHHHHHHMKYLVSIDGGGTKTKFCVSDLDGNILKEHTTGSTNYKSVGIKKTYENINNGFKKILKDLYIDYDDIEYTVFGISGCDSPNDYKIIMDEILKIGINKEKIYLANDAVLAFYAQADSPGLVIVAGTGSIILGIKEDGEIYRVGGWGYNFSDLGSGYDIGRKLLKKVLLYCDECHEYSDLFSCVLDFFGANSFEQLAYMITDINDNVEIANLASLVIDCAEQGDKLAIEILRESSTELSKLAQVILRKISNPMKMDKSEINIVLSGGTLNKTVYVQMLMNNLKTENTDKNLKFISQENQPVYGGIRLAMALANRRVKHG | not soluble
MSRDTGDNLDRNQSGNLPMANVMDAYLSRRSVMRGSLGAAIAMIAGTGLTGCFDGGGSDHDDPVTEPPVTEPPVTEPEVPKLALGFQSIPGSRTDACVVAAGYSAYVLAPWGTPLNSNGNPWKSDGSNTSTDQANAMGMHHDGMHFFPINGSSEDGLLAINFEYIDTAALHPAGPTTDVNGKRPVEEVRKEINAHGAGVVRLQKINGRWQVVDNDPLNRRFTTASRMEITGPLRGTDHVKTKYSTAGTHCRGTNNNCGNGYTPWGTYLTCEENWPGIFVNKGTRPEDQRRIGVGTSSGQYKWESAAGDASEVDDEFARFDVTVKGASATDDYRNEASTYGYIVEIDPYNSSTLATKRTALGRFRHEGCAPGLPVAGKPLVWYMGDDSNNEYLYKWVSTAVWDPADATPADRLATGAKYLDQGKLYVARFNADGTGVWLLLDVATATTAGSTLGALYGDLPGIILNTRGAGDAVGATPMDRPEWTTVNPLNGDVYLTLTNNSARTPDKVDAANPRGPNRHGHIIRWHDSDDQLSFTWDIFVFGANAAGTADINRSGLTELNQFASPDGMSFDSRGVLWFETDNGETTLTDYTNDQLLAVIPTDLVDASGKQVPVNAQNQVDLRRFFVGPNGCEVTGITFTPDNKTLFVNIQHPDNWPYTDKATDATPAGATVRPRASTVVIQRIDGGEIGTV | not soluble
MCMDLESLLAIKHFRADQAQLALKRQQQAAVAAAAQRQAQGRLDDCRLWAGQLENRLYAELCRRIVKTRDIDEVLQRVGHARDRQASLALQLDDAVRRHEHEIQLLAQQREQHRECFQAQQRIAELVRLQQVEAAALRESLEDREIQEAIELSARGRDDASRAGDGLARLLEHHHHHH | not soluble
MKYQVSLLAVKDIEVSKKFYKELFEQEIELDLGKNVTFKGGFAIQEDFAWLTGINPDTIIQKSNNMELYFEVDDFDEFIEKLNYYKDVEFVHKPLKHEWQQRVVRIYDPDKHIIEIGESMEVIARRYLSEGYSVEETSKIIQHPIEFVKQCENSKELEHHHHHH | soluble
MLPVTYRLIPQSGVSTYRLNTADTPVFPDIPEHAPNPSRLRLAHDSLAINSEFRLEPECVVEYLISGAGGIDPDTEIDDDTYDECYDELSSVLQNAYTQSETFRRLMNYAYEKELHDVEQRWLLGAGEAFETTVAQEHFKLSEGRKVICLNLDDSDDSYTEHYESNEGRQLFDTKRSFIHEVVHALTHLQDKEENHPRGPVVEYTNIILKEMGHPSPPRMVYIFNK | not soluble
MGKTQEFLRLRRIIALSSLLASRKSAMCLAVLALHAIPGLPVLIAANRDEFHARPTAEATRWPGSPAIYAGRDLQAGGTWLGVSDQGRYAVVTNFRDPRNIQPDAPSRGALVEAFLRGAASAQEYLRDVHARGARYNGFNLIVGDAGGAWYCSNRDGAPQRLAAGVYALSNHLLDTPWPKLARTKAAFERIIAATPQPDLAALYAALADPTPAADHELPATGLALERERLLSSPFIVSPDYGTRSACILALHDDGRGELHERRFRPDGAIAGQADLDFPWRAARAELHRASCVLEHHHHHH | not soluble
MVFEEFISTELKKEKKAFTEEFKEEKEINDNSNLKNDLLKEELQEKARIAELESRILKLELEKKELERENLQLMKENEILRRELDRMRVPPLIVGTVVDKVGERKVVVKSSTGPSFLVNVSHFVNPDDLAPGKRVCLNQQTLTVVDVLPENKDYRAKAMEVDERPNVRYEDIGGLEKQMQEIREVVELPLKHPELFEKVGIEPPKGILLYGPPGTGKTLLAKAVATETNATFIRVVGSELVKKFIGEGASLVKDIFKLAKEKAPSIIFIDEIDAIAAKRTDALTGGDREVQRTLMQLLAEMDGFDARGDVKIIGATNRPDILDPAILRPGRFDRIIEVPAPDEKGRLEILKIHTRKMNLAEDVNLEEIAKMTEGCVGAELKAICTEAGMNAIRELRDYVTMDDFRKAVEKIMEKKKVKVKEPAHLDVLYR | soluble
MRVRIVGAPSLLVGVISDTHDNLALARRAGEIFARERVEAVIHLGDYVAPFTLAELLGVVGGKAVFYGVFGNNDGERLGLSRVAGGFGASLLDPPATVSIGGRRLLLLHGFGSPENTVELVDALASSGRWDAVLYGHTHKARVERVGGSLVLNPGDGGGSLEKPSAAILDLESMEARLVSLEGAAALEHHHHHH | not soluble
MPLTPLHQVELRLMRTVIAICEAENIDYFLIGGSLLGAIRHHGFIPWDDDIDIGMRRHDYQRFIAVANHHLDPNKFFLQTGASDPDYALSYMKLLDVNTYIEERNNVNNAFKGVFVDIFPFDKIPDDEALRRSQMLHYKLADAAILLKLNYRFVKTPLRNLITKHTPQQLAEVNRYKLEREEYMRLYEQSDSRTYKNLASQYDYEKEIMTYQELTELTTVPFEDIQVKIPSAYDTILTRMYGDYMQLPPADKRVEKHLNKLIIDNHEILLEHHHHHH | not soluble
MAHHHHHHMLNPTFSLYRKTLQSYPVPPKIRHYDRRWSGSRTNPYNRQYWRVIMNENYSRPSFWVSDFRHRYLMRTGTDYQGQVPSSPQPGLYQGFSDVHKLLANHPKPQRESRHLPVLPMTPRVVFEHANEKRIDTAKKMRRDRRRIEELKTLEFWGWYMKLQRVRGRWCREQGVSSRGVYGPAVDAAELWG | not soluble
MSLTEIRLVDVTMRDGNQSLWGATGLNTAHMLQAAALTEACGFRAIDFTSSSHMAVAVRYFQNNPWERLRRMAAAMPTTPLQFITTGLRFIAWQQADPEFMRLVYRALQANGVGRFVLLDPMHEVPAVIEAAKLVKEEGNAEVMAALTFTLSEIHTDQFYADFARAVGQSPNIDLFYIKDPAGLLSVDRARTLVPAVKAVIGNRPLEIHAHTTVGQGMMASLEAAKLGISAIHVGVGPGGDGSSLPEANRMVANLEEAGFSVGVDKAALKRLTTYWERVALAEGLPPGTPQNFDASFLRHQIAGGVMTTIARQLDELGLSDRMGAVIEETGQVRADLGFPIMVTPFPQMVMTQALFNVIGERRYAQVSDQVIRYCMGKFGKPTSPVDREVLATIMDRPRSRELEDEPMFPALGDLRRQFGSHLPDEEFLLRAVMPGEQVDAMLAAGPSRATYSPQAAPILSLLRQLAARPDARDIVIEREGFRLALHAGASLEGHHHHHH | not soluble
